Reference: patent US20220411536A1 (NUMAB THERAPEUTICS, published 2022)
Where a chain is given by its changes, count along the chain named. Blank lines part the entries; values can stand above or below the binder they belong to.

Columns and labels:
[1] = biological target: T1, human PD-L1 expressed on cells (CHO-PD-L1, HCC1954, HCC827) (human, UniProt Q9NZQ7 19-290); assay: flow cytometry with human SA, inhibition of PD-1 binding to HCC827 cells
T1 construct: whole, on cells; also called hPD-L1; PD-L1 expressing cells

[2] = biological target: CD137 on transgenic NF-kB Jurkat reporter cells (Homo sapiens (Human), UniProt Q07011 24-255); assay: cell-based or functional assay
[3] = biological target: T1, human PD-L1 expressed on cells …; assay: flow cytometry with human SA, inhibition of PD-1 binding to HCC1954 cells
[4] = biological target: T1, human PD-L1 expressed on cells …; assay: flow cytometry, inhibition of biotinylated PD-1 binding to HCC1954 cells
[5] = biological target: T1, human PD-L1 expressed on cells …; assay: flow cytometry, inhibition of biotinylated PD-1 binding to HCC827 cells
[6] = biological target: T2, CD3e on Jurkat PD-1 NFAT reporter T cells or on T cells of human PBMCs (human, UniProt P07766 23-207); assay: cell-based or functional assay
[7] = biological target: T2, CD3e on Jurkat PD-1 NFAT reporter T …; assay: cell-based or functional assay; remark: listed apart in the source
[8] = biological target: T3, recombinant human CD3E ECD (SinoBiological, cat. 10977-H08H) (human, UniProt P07766 23-126); assay: SPR, immobilised CD3e ECD, two-state model (ka1)
T3 construct: extracellular domain; bought protein; also called CD3s
T3 sequence (P07766 23-126): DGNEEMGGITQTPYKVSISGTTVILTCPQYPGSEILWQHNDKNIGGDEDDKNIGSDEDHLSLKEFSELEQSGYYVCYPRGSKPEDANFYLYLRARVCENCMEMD

[9] = biological target: T3, recombinant human CD3E ECD …; assay: SPR, immobilised CD3e ECD, two-state model
[10] = biological target: T4, recombinant human IL-23R (custom-made by Trenzyme) (human, UniProt Q5VWK5 24-355); assay: SPR, immobilised IL-23R
T4 sequence (looked up): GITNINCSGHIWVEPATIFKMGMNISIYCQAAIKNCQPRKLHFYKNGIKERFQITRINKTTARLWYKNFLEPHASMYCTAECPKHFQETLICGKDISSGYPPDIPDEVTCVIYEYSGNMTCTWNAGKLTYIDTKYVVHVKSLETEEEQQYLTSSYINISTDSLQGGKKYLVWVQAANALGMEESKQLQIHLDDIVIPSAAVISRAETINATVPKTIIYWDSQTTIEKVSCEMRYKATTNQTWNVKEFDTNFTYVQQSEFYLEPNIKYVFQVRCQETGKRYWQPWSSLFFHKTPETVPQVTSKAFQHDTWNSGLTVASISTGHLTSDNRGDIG

[11] = biological target: T5, recombinant human Her2 ECD (SinoBiological, cat. 10004-HCCH) (human, UniProt P04626 23-652); assay: SPR, immobilised Her2 ECD
T5 construct: extracellular domain; bought protein

[12] = biological target: T6, Fc-tagged human PD-L1 extracellular domain (SinoBiological, cat. 10084-H02H) (human, UniProt Q9NZQ7 19-238); assay: SPR, captured Fc-PD-L1 ECD, kinetic
T6 construct: extracellular domain; also called hPD-L1; not shown: Fc tag of the bought protein

[13] = biological target: T3, recombinant human CD3E ECD …; assay: SPR, immobilised CD3e ECD, two-state model (kd1)
mouse serum albumin = biological target: T7, mouse serum albumin (mouse, UniProt P07724 25-608); assay: SPR, immobilised MSA, pH 5.5
T7 construct: also called MSA; mouse SA
T7 sequence (P07724 25-608 limits assumed): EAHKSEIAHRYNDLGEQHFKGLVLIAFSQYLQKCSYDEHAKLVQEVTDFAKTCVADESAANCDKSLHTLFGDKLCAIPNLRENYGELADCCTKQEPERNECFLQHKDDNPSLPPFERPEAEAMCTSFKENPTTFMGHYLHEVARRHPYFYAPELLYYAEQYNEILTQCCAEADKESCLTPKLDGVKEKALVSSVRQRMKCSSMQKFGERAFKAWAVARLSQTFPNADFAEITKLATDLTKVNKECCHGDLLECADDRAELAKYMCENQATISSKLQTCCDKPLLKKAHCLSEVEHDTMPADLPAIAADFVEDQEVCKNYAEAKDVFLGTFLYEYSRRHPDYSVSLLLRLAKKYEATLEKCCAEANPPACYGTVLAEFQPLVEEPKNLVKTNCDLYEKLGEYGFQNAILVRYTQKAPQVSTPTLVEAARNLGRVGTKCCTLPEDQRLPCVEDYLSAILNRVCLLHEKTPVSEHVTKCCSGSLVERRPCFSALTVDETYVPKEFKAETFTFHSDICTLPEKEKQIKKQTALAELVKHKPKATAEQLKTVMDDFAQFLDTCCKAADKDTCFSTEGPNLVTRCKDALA

human serum albumin = biological target: T8, human serum albumin (human, UniProt P02768 25-609); assay: SPR, immobilised HSA, pH 5.5
T8 construct: also called HSA; human SA

[14] = biological target: T6, Fc-tagged human PD-L1 extracellular …; assay: SPR, captured Fc-PD-L1 ECD

B2: PRO1455 (multispecific antibody)
chain 1: DIQMTQSPSSLSASVGDRVTITCQASENIYSFLAWYQQKPGKAPKLLIYSASKLAAGVPSRFSGSGSGTDFTLTISSLQPEDFATYYCQQTNRYSNPDIYNVFGTGTKVTVLGTVAAPSVFIFPPSDEQLKSGTASVVCLLNNFYPREAKVQWKVDNALQSGNSQESVTEQDSKDSTYSLSSTLTLSKADYEKHKVYACEVTHQGLSSPVTKSFNRGECGGGGSGGGGSDIQMTQSPSSLSASVGDRVTITCQSSQSVFSNNYLAWFQQKPGQSPKRLIYSASTLASGVPSRFSGSGSGTDFTLTISSLQPEDFATYYCLGSYACSSADCYVFGTGTKVTVLGGGGGSGGGGSGGGGSGGGGSEVQLVESGGGLVQPGGSLRLSCAASGFSLSSYDMSWVRQAPGKGLAWIGASYASGPTYYASWAKGRFTISRDNSKNTVYLQMNSLRAEDTATYFCARGGWTGTSHSNIWGQGTLVTVSS
chain 2: EVQLVESGGGLVQPGGSLRLSCAASGIDFNSNYYMCWVRQAPGKGLEWIGCIYVGSHVNTYYANWAKGRFTISRDNSKNTVYLQMNSLRAEDTAVYYCATSGSSVLYFKFWGQGTLVTVSSASTKGPSVFPLAPSSKSTSGGTAALGCLVKDYFPEPVTVSWNSGALTSGVHTFPAVLQSSGLYSLSSVVTVPSSSLGTQTYICNVNHKPSNTKVDKKVEPKSCGGGGSGGGGSDIQMTQSPSSLSASVGDRVTITCQASQSINDYLAWYQQKPGKAPKLLIYKASTLASGVPSRFSGSGSGTDFTLTISSLQPEDFATYYCQQAYIITDIDNVFGTGTKVTVLGGGGGSGGGGSGGGGSGGGGSQVQLQESGPGLVKPSETLSLTCKVSGFSFSSGYDMCWIRQPPGKGLEWIGCVVAGSVDITYYASWAKGRVTISVDSSKNQFSLKLSSVTAADTAVYYCARKDAYSDAFNLWGQGTLVTVSS
IC50 [4]: 2.85 µg/mL
IC50 [5]: 2.8 µg/mL
fold weaker activation than PRO1454, NFAT reporter, HCC1954 cells [6]: 27 fold
IC50, NFAT reporter, HCC1954 cells [7]: 4.07 nM

B3: PRO1498 (multispecific antibody)
chain 1: B2 chain 1
chain 2: B2 chain 2 with Q324A
kon [8]: 197000 M⁻¹ s⁻¹
KD1 [9]: 29.6 nM
Kd [9]: 19.5 nM
kd2 [9]: 0.00198 s⁻¹
IC50 [4]: 7.05 µg/mL
Kd [10]: 0.563 nM
koff [10]: 0.000278 s⁻¹
kon [10]: 495000 M⁻¹ s⁻¹
binding result [11]: no binding (tested: 90 nM highest concentration)
IC50 [5]: 8.54 µg/mL
fold weaker activation than PRO1497, NFAT reporter, HCC1954 cells [6]: 475 fold
Kd [12]: 332 nM
koff [12]: 0.000379 s⁻¹
kon [12]: 1140 M⁻¹ s⁻¹
IC50, NFAT reporter, HCC1954 cells [7]: 172 nM
rel. max. activation vs PRO1497, NFAT reporter, HCC1954 cells [7]: 71%
koff [13]: 0.00584 s⁻¹

B4: PRO1558 (multispecific antibody)
chain 1: DIQMTQSPSSLSASVGDRVTITCQASENIYSFLAWYQQKPGKAPKLLIYSASKLAAGVPSRFSGSGSGTDFTLTISSLQPEDFATYYCQQTNRYSNPDIYNVFGTGTKVTVLGGGGGSGGGGSGGGGSGGGGSEVQLVESGGGLVQPGGSLRLSCAASGIDFNSNYYMCWVRQAPGKGLEWIGCIYVGSHVNTYYANWAKGRFTISRDNSKNTVYLQMNSLRAEDTAVYYCATSGSSVLYFKFWGQGTLVTVSSGGGGSGGGGSDVVMTQSPSSLSASVGDRVTITCQASQIISSRSAWYQQKPGQPPKLLIYQASKLASGVPSRFSGSGSGTDFTLTISSLQPEDFATYYCQCTYIDSNFGAFGCGTKLTVLGGGSGGSDIQMTQSPSSLSASVGDRVTITCQSSQSVFSNNYLAWFQQKPGQSPKRLIYSASTLASGVPSRFSGSGSGTDFTLTISSLQPEDFATYYCLGSYACSSADCYVFGTGTKVTVLG
chain 2: not shown
kon [8]: 315000 M⁻¹ s⁻¹
Kd (mouse serum albumin): 11.5 nM
koff (mouse serum albumin): 0.0011 s⁻¹
kon (mouse serum albumin): 95800 M⁻¹ s⁻¹
KD1 [9]: 15.7 nM
Kd [9]: 7.95 nM
kd2 [9]: 0.00335 s⁻¹
Kd (human serum albumin): 0.501 nM
koff (human serum albumin): 0.000123 s⁻¹
kon (human serum albumin): 245000 M⁻¹ s⁻¹
Kd [10]: 0.868 nM
koff [10]: 0.000493 s⁻¹
kon [10]: 568000 M⁻¹ s⁻¹
Kd [11]: 0.3 nM
koff [11]: 6.07e-05 s⁻¹
kon [11]: 202000 M⁻¹ s⁻¹
binding result [14]: no binding
IC50, NFAT reporter, HCC1954 cells [7]: 2.71 nM
rel. max. activation vs PRO1497, NFAT reporter, HCC1954 cells [7]: 53%
koff [13]: 0.00496 s⁻¹

The next lines start with the values.

IC50 [1]: 6.72 µg/mL
EC50, NFkB reporter gene assay, HCC1954 cells [2]: 0.661 nM
IC50 [3]: 1.42 µg/mL
B1: PRO1778 (multispecific antibody)
chain 1: not shown
chain 2: DVVMTQSPSSLSASVGDRVTITCQASQIISSRSAWYQQKPGQPPKLLIYQASKLASGVPSRFSGSGSGTDFTLTISSLQPEDFATYYCQCTYIDSNFGAFGGGTKLTVLGGGGGSGGGGSGGGGSGGGGSEVQLVESGGGLVQPGGSLRLSCAASGFSFSSSYWICWVRQAPGKGLEWVGCVFTGDGTTYYASWAKGRFTISRDNSKNTVYLQMNSLRAEDTATYFCARPVSVYYYGMDLWGQGTLVTVSSGGGGSGGGGSQVQLQESGPGLVKPSETLSLTCKVSGFSFSSGYDMCWIRQPPGKGLEWIGCVVAGSVDITYYASWAKGRVTISVDSSKNQFSLKLSSVTAADTAVYYCARKDAYSDAFNLWGQGTLVTVSSGGGSGGGSEVQLVESGGGLVQPGGSLRLSCAASGFSFSANYYPCWVRQAPGKCLEWIGCIYGGSSDITYDANWTKGRFTISRDNSKNTVYLQMNSLRAEDTAVYYCARSAWYSGWGGDLWGQGTLVTVSS

IC50 [1]: 32.6 µg/mL
EC50, NFkB reporter gene assay, HCC1954 cells [2]: 0.603 nM
IC50 [3]: 0.695 µg/mL
B5: PRO1780 (multispecific antibody)
chain 1: not shown
chain 2: DIQMTQSPSSLSASVGDRVTITCQASQSISNRLAWYQQKPGKAPKLLIYSASTLASGVPSRFSGSGSGTDFTLTISSLQPEDFATYYCQSTYYGNDGNAFGCGTKVTVLGGGGGSGGGGSGGGGSGGGGSEVQLVESGGGLVQPGGSLRLSCAASGFSFSANYYPCWVRQAPGKCLEWIGCIYGGSSDITYDANWTKGRFTISRDNSKNTVYLQMNSLRAEDTAVYYCARSAWYSGWGGDLWGQGTLVTVSSGGGGSGGGGSQVQLQESGPGLVKPSETLSLTCKVSGFSFSSGYDMCWIRQPPGKGLEWIGCVVAGSVDITYYASWAKGRVTISVDSSKNQFSLKLSSVTAADTAVYYCARKDAYSDAFNLWGQGTLVTVSSGGGSGGGSEVQLVESGGGLVQPGGSLRLSCAASGFSFSSSYWICWVRQAPGKCLEWVGCVFTGDGTTYYASWAKGRFTISRDNSKNTVYLQMNSLRAEDTATYFCARPVSVYYYGMDLWGQGTLVTVSS
